The values that follow come from article PMC11615828.

The target of assay [1] is EMTB‐YFP‐CIBN (UniProt Q8GY61).
Assay [2] addresses EMTB‐CFP‐FRB.
Assay [3] addresses EMTB‐YFP‐CIBN (UniProt Q8GY61). The source holds these as a separate data set.
Assay [4] concerns the target EMTB‐CFP‐FRB. The source holds these as a separate data set.

In turn, ACE2‐mNeon‐FKBP registered an internalisation of SARS-CoV2 spike‐Alexa Fluor 647 into ACE2-positive HeLa cells after 2 h, rapamycin 100 nM against DMSO with LifeAct‐CFP‐FRB of 89%.

Turning to LAMP1‐mCh‐Cry2, in the assay with EMTB‐YFP‐CIBN [1], the immobilisation of LAMP1-labelled lysosomes under blue light (half time on) came out at 6.2 s and the return of lysosome mobility after the end of blue light (half time off) was 68.8 s.

The substance LAMP1‐mNeon‐FKBP came in with a motility of LAMP1-labelled lysosomes slowed after rapamycin (half time of the slowing) in the assay with EMTB‐CFP‐FRB [2] of 11 s.

Regarding TGN38‐mNeon‐FKBP, the motility of post-Golgi vesicles halted after rapamycin 100 nM (half time) in the assay with EMTB‐CFP‐FRB [2] worked out at 9 s.

In the assay with EMTB‐YFP‐CIBN [3], mCh‐Cry2‐VAMP2 gave an immobilisation of VAMP2-labelled vesicles under blue light (half time on) of 7 s and a return of VAMP2 vesicle mobility after blue light (half time off) of 68.1 s.

In the case of mNeon‐FKBP‐IFT88, the movement of IFT88 particles along axonemes in cilia of NIH3T3 cells after rapamycin 100 nM in the assay with CFP‐FRB‐MAP4m was 20 s.

The substance mNeon‐FKBP‐Rab5b displayed a motility of endosomes halted after rapamycin 100 nM (half time) with EMTB‐CFP‐FRB [2] of 11.8 s.

Substance mNeon‐FKBP‐Rab11b displayed a motility of recycling endosomes halted after rapamycin 100 nM (half time) in the assay with EMTB‐CFP‐FRB [2] of 12.5 s.

On to mNeon‐FKBP‐Rab37, for which the motility of exocytic vesicles halted after rapamycin 100 nM (half time) with EMTB‐CFP‐FRB [2] is 12.3 s.

For the substance mNeon‐FKBP‐VAMP2, in the assay with EMTB‐CFP‐FRB [4], the immobilisation of VAMP2-labelled vesicles in COS7 cells after rapamycin 100 nM (half time) is 19.2 s and the immobilisation of VAMP2-labelled vesicles in primary culture cortical neurons after rapamycin 100 nM (half time) is 13.6 s.
